Data published in paper PMC5651264.

Biological target: His-tagged FRUCTOKINASE6 (FRK6-His) (Arabidopsis thaliana)

formazan staining of a native PAGE gel (fructokinase enzyme activity staining), 1 μg FRK6-His with 1 μg His-TSF (the His-tagged TSF, not the GST fusion), against FRK6-His alone: 2 fold
Substance: GST-tagged TWIN SISTER OF FT (GST-TSF) (from UniProt Q9S7R5 1-175) (natural protein)
